Experimental data reported in the Human Domainome abundance scans (Beltran et al. 2025).
± gives the uncertainty stated by the source.

Assay: abundance fitness (aPCA) (normalised: wild type 0, dead -1); higher = more abundant; growth selection in yeast, the domain comes from the species named
Conditions: Homo sapiens

Row | Substance | abundance fitness
1 | Transcriptional activator Myb M189K, P10242 | 0.038 ± 0.14
2 | Transcriptional activator Myb M189L, P10242 | 0.073 ± 0.083
3 | Transcriptional activator Myb M189N, P10242 | -0.155 ± 0.14
4 | Transcriptional activator Myb M189P, P10242 | -0.386 ± 0.17
5 | Transcriptional activator Myb M189R, P10242 | -0.303 ± 0.064
6 | Transcriptional activator Myb M189S, P10242 | -0.303 ± 0.065
7 | Transcriptional activator Myb M189T, P10242 | -0.181 ± 0.085
8 | Transcriptional activator Myb M189V, P10242 | -0.02 ± 0.064
9 | Transcriptional activator Myb M189W, P10242 | -0.36 ± 0.093
10 | Transcriptional activator Myb M189Y, P10242 | -0.535 ± 0.15
11 | Transcriptional activator Myb N179A, P10242 | 0.001 ± 0.053
12 | Transcriptional activator Myb N179C, P10242 | -0.022 ± 0.088
13 | Transcriptional activator Myb N179E, P10242 | 0.016 ± 0.069
14 | Transcriptional activator Myb N179F, P10242 | -0.027 ± 0.12
15 | Transcriptional activator Myb N179G, P10242 | 0.004 ± 0.041
16 | Transcriptional activator Myb N179H, P10242 | -0.04 ± 0.094
17 | Transcriptional activator Myb N179I, P10242 | 0.127 ± 0.14
18 | Transcriptional activator Myb N179L, P10242 | 0.029 ± 0.059
19 | Transcriptional activator Myb N179P, P10242 | -0.489 ± 0.097
20 | Transcriptional activator Myb N179Q, P10242 | -0.025 ± 0.078
21 | Transcriptional activator Myb N179S, P10242 | -0.075 ± 0.061
22 | Transcriptional activator Myb N179T, P10242 | 0.026 ± 0.075

Row | Substance | abundance fitness
23 | Transcriptional activator Myb N179W, P10242 | -0.169 ± 0.066
24 | Transcriptional activator Myb N179Y, P10242 | -0.075 ± 0.1
25 | Transcriptional activator Myb N183A, P10242 | 0.037 ± 0.094
26 | Transcriptional activator Myb N183C, P10242 | -0.203 ± 0.12
27 | Transcriptional activator Myb N183D, P10242 | 0.142 ± 0.18
28 | Transcriptional activator Myb N183E, P10242 | 0.011 ± 0.098
29 | Transcriptional activator Myb N183F, P10242 | -0.176 ± 0.14
30 | Transcriptional activator Myb N183G, P10242 | -0.067 ± 0.063
31 | Transcriptional activator Myb N183H, P10242 | 0.141 ± 0.17
32 | Transcriptional activator Myb N183I, P10242 | -0.022 ± 0.11
33 | Transcriptional activator Myb N183K, P10242 | -0.192 ± 0.099
34 | Transcriptional activator Myb N183L, P10242 | -0.074 ± 0.084
35 | Transcriptional activator Myb N183M, P10242 | 0.068 ± 0.11
36 | Transcriptional activator Myb N183P, P10242 | -1.09 ± 0.14
37 | Transcriptional activator Myb N183Q, P10242 | -0.094 ± 0.13
38 | Transcriptional activator Myb N183R, P10242 | -0.153 ± 0.051
39 | Transcriptional activator Myb N183S, P10242 | -0.019 ± 0.085
40 | Transcriptional activator Myb N183T, P10242 | 0.101 ± 0.086
41 | Transcriptional activator Myb N183W, P10242 | -0.198 ± 0.084
42 | Transcriptional activator Myb N183Y, P10242 | -0.343 ± 0.1
43 | Transcriptional activator Myb N186A, P10242 | -0.081 ± 0.07
44 | Transcriptional activator Myb N186C, P10242 | -0.028 ± 0.089

Row | Substance | abundance fitness
45 | Transcriptional activator Myb N186E, P10242 | 0.037 ± 0.079
46 | Transcriptional activator Myb N186F, P10242 | -0.055 ± 0.13
47 | Transcriptional activator Myb N186G, P10242 | -0.162 ± 0.055
48 | Transcriptional activator Myb N186H, P10242 | -0.139 ± 0.19
49 | Transcriptional activator Myb N186I, P10242 | 0.027 ± 0.1
50 | Transcriptional activator Myb N186K, P10242 | 0.065 ± 0.1
51 | Transcriptional activator Myb N186L, P10242 | -0.016 ± 0.071
52 | Transcriptional activator Myb N186M, P10242 | -0.007 ± 0.11
53 | Transcriptional activator Myb N186P, P10242 | -0.804 ± 0.14
54 | Transcriptional activator Myb N186R, P10242 | -0.047 ± 0.059
55 | Transcriptional activator Myb N186S, P10242 | -0.062 ± 0.062
56 | Transcriptional activator Myb N186V, P10242 | -0.017 ± 0.072
57 | Transcriptional activator Myb N186Y, P10242 | -0.154 ± 0.15
58 | Transcriptional activator Myb P174A, P10242 | -0.359 ± 0.066
59 | Transcriptional activator Myb P174C, P10242 | -0.239 ± 0.15
60 | Transcriptional activator Myb P174D, P10242 | -0.224 ± 0.1
61 | Transcriptional activator Myb P174E, P10242 | -0.02 ± 0.098
62 | Transcriptional activator Myb P174F, P10242 | -0.298 ± 0.17
63 | Transcriptional activator Myb P174G, P10242 | -0.462 ± 0.056
64 | Transcriptional activator Myb P174H, P10242 | -0.479 ± 0.12
65 | Transcriptional activator Myb P174I, P10242 | -0.339 ± 0.14
66 | Transcriptional activator Myb P174K, P10242 | -0.086 ± 0.11

Row | Substance | abundance fitness
67 | Transcriptional activator Myb P174L, P10242 | -0.443 ± 0.082
68 | Transcriptional activator Myb P174M, P10242 | -0.329 ± 0.093
69 | Transcriptional activator Myb P174N, P10242 | -0.255 ± 0.16
70 | Transcriptional activator Myb P174R, P10242 | -0.251 ± 0.052
71 | Transcriptional activator Myb P174S, P10242 | -0.338 ± 0.088
72 | Transcriptional activator Myb P174T, P10242 | -0.184 ± 0.074
73 | Transcriptional activator Myb P174V, P10242 | -0.127 ± 0.073
74 | Transcriptional activator Myb P174Y, P10242 | -0.643 ± 0.12
75 | Transcriptional activator Myb Q157L, P10242 | -0.081 ± 0.22
76 | Transcriptional activator Myb Q195A, P10242 | -0.045 ± 0.079
77 | Transcriptional activator Myb Q195C, P10242 | -0.043 ± 0.12
78 | Transcriptional activator Myb Q195D, P10242 | -0.19 ± 0.13
79 | Transcriptional activator Myb Q195E, P10242 | 0.006 ± 0.15
80 | Transcriptional activator Myb Q195F, P10242 | -0.244 ± 0.15
81 | Transcriptional activator Myb Q195G, P10242 | -0.074 ± 0.074
82 | Transcriptional activator Myb Q195H, P10242 | -0.269 ± 0.16
83 | Transcriptional activator Myb Q195I, P10242 | -0.19 ± 0.15
84 | Transcriptional activator Myb Q195K, P10242 | -0.388 ± 0.41
85 | Transcriptional activator Myb Q195L, P10242 | -0.057 ± 0.091
86 | Transcriptional activator Myb Q195M, P10242 | -0.199 ± 0.16
87 | Transcriptional activator Myb Q195N, P10242 | 0.107 ± 0.29
88 | Transcriptional activator Myb Q195P, P10242 | -0.214 ± 0.15

Row | Substance | abundance fitness
89 | Transcriptional activator Myb Q195R, P10242 | 0.091 ± 0.07
90 | Transcriptional activator Myb Q195S, P10242 | -0.054 ± 0.1
91 | Transcriptional activator Myb Q195V, P10242 | 0.043 ± 0.081
92 | Transcriptional activator Myb Q195W, P10242 | -0.282 ± 0.14
93 | Transcriptional activator Myb Q195Y, P10242 | -0.26 ± 0.22
94 | Transcriptional activator Myb Q200A, P10242 | 0.011 ± 0.068
95 | Transcriptional activator Myb Q200C, P10242 | -0.18 ± 0.11
96 | Transcriptional activator Myb Q200D, P10242 | -0.139 ± 0.11
97 | Transcriptional activator Myb Q200E, P10242 | -0.008 ± 0.082
98 | Transcriptional activator Myb Q200F, P10242 | -0.302 ± 0.11
99 | Transcriptional activator Myb Q200G, P10242 | 0.014 ± 0.049
100 | Transcriptional activator Myb Q200H, P10242 | 0.003 ± 0.13
101 | Transcriptional activator Myb Q200I, P10242 | -0.161 ± 0.11
102 | Transcriptional activator Myb Q200K, P10242 | 0.002 ± 0.088
103 | Transcriptional activator Myb Q200L, P10242 | -0.078 ± 0.067
104 | Transcriptional activator Myb Q200M, P10242 | -0.205 ± 0.088
105 | Transcriptional activator Myb Q200N, P10242 | 0.004 ± 0.11
106 | Transcriptional activator Myb Q200P, P10242 | 0.005 ± 0.1
107 | Transcriptional activator Myb Q200R, P10242 | 0.007 ± 0.048
108 | Transcriptional activator Myb Q200S, P10242 | -0.073 ± 0.06
